Reference: patent publication US20250257332A1, “TRUNCATED AND FUSION PROTEINS” (Monash University, priority 2021, published 2025)
Entries after “also recorded” stand apart in the source; their conditions may differ.

B1: NAMPT422-491: Truncated hNAMPTcif, residues 422-491 of full length NAMPT, SEQ ID NO: 6 (His-tagged: SEQ ID NO: 7) (protein)
chain: NKRSKKGRLSLHRTPAGNFVTLEEGKGDLEEYGQDLLHTVFKNGKVTKSYSFDEIRKNAQLNIELEAAHH
B2: CCL4/MIP-1β: canonical CCR5 ligand (protein, UniProt P14097 24-92, looked up)
C-C motif chemokine 4: APMGSDPPTSCCFSYTSRQLHRSFVMDYYETSSLCSKPAVVFLTKRGRQICANPSEPWVTEYMSDLELN
B3: hrNAMPT(1): Commercially available human recombinant NAMPT source 1 (Peprotech); used in the mouse injury model (protein)
chain: PPNTSKVYSYFECREKKTENSKLRKVKYEETVFYGLQYILNKYLKGKVVTKEKIQEAKDVYKEHFQDDVFNEKGWNYILEKYDGHLPIEIKAVPEGFVIPRGNVLFTVENTDPECYWLTNWIETILVQSWYPITVATNSREQKKILAKYLLETSGNLDGLEYKLHDFGYRGVSSQETAGIGASAHLVNFKGTDTVAGLALIKKYYGTKDPVPGYSVPAAEHSTITAWGKDHEKDAFEHIVTQFSSVPVSVVSDSYDIYNACEKIWGEDLRHLIVSRSTQAPLIIRPDSGNPLDTVLKVLEILGKKFPVTENSKGYKLLPPYLRVIQGDGVDINTLQEIVEGMKQKMWSIENIAFGSGGGLLQKLTRDLLNCSFKCSYVVTNGLGINVFKDPVADPNKRSKKGRLSLHRTPAGNFVTLEEGKGDLEEYGQDLLHTVFKNGKVTKSYSFDEIRKNAQLNIELEAAHH
B4: hrNAMPT(2): Second commercially available human recombinant NAMPT protein source (protein)
chain: MNPAAEAEFNILLATDSYKVTHYKQYPPNTSKVYSYFECREKKTENSKLRKVKYEETVFYGLQYILNKYLKGKVVTKEKIQEAKDVYKEHFQDDVFNEKGWNYILEKYDGHLPIEIKAVPEGFVIPRGNVLFTVENTDPECYWLTNWIETILVQSWYPITVATNSREQKKILAKYLLETSGNLDGLEYKLHDFGYRGVSSQETAGIGASAHLVNFKGTDTVAGLALIKKYYGTKDPVPGYSVPAAEHSTITAWGKDHEKDAFEHIVTQFSSVPVSVVSDSYDIYNACEKIWGEDLRHLIVSRSTQAPLIIRPDSGNPLDTVLKVLEILGKKFPVTENSKGYKLLPPYLRVIQGDGVDINTLQEIVEGMKQKMWSIENIAFGSGGGLLQKLTRDLLNCSFKCSYVVTNGLGINVFKDPVADPNKRSKKGRLSLHRTPAGNFVTLEEGKGDLEEYGQDLLHTVFKNGKVTKSYSFDEIRKNAQLNIELEAAHH
B5: NAMPT430-491: Truncated hNAMPTcif, residues 430-491 of full length NAMPT, SEQ ID NO: 8 (His-tagged: SEQ ID NO: 9) (protein)
chain: LSLHRTPAGNFVTLEEGKGDLEEYGQDLLHTVFKNGKVTKSYSFDEIRKNAQLNIELEAAHH
B6: CCL8/MCP-2: canonical CCR5 ligand (protein, UniProt Q9Z121 24-97, looked up)
C-C motif chemokine 8: GPDKAPVTCCFHVLKLKIPLRVLKSYERINNIQCPMEAVVFQTKQGMSLCVDPTQKWVSEYMEILDQKSQILQP
B7: NAMPT414-491: Truncated hNAMPTcif, residues 414-491 of full length NAMPT, SEQ ID NO: 4 (His-tagged: SEQ ID NO: 5) (protein)
chain: FKDPVADPNKRSKKGRLSLHRTPAGNFVTLEEGKGDLEEYGQDLLHTVFKNGKVTKSYSFDEIRKNAQLNIELEAAHH

How the values were obtained:
[1] = tested on: C2C12 murine myoblast cells; experiment: C2C12 cell proliferation, CyQuant Proliferation Assay kit; type: cell-based, mouse; details: 20 nM, 48 hours, compared with full-length NAMPT
Procedure: FIG. 7. Human NAMPT variants stimulate muscle progenitor proliferation. C2C12 mouse myoblasts were treated with 20 nM full length NAMPT (NAMPT) or NAMPT variants for (NAMPTxxx-xxx, where xxx are amino acid numbers) 48 hours. Quantification of cell proliferation was performed using CyQuant Proliferation Assay kit. […] Box and whiskers denote median with minimum and maximum values. n=4-5 independent experiments per protein. Statistical significance is indicated as exact p-value. […] Significance between conditions were analysed by one-way ANOVA with Tukey post-hoc test.
Human NAMPTcif (hNAMPTcif) and truncated variants of hNAMPTcif were designed by progressively removing N-terminal regions containing positively charged amino acids. Four truncations were produced and numbered T1 to T4. Recombinant protein was produced using a bacterial expression system. hNAMPTcif variants were purified by FPLC using His-tag affinity purification. Cell proliferation assays were performed using C2C12 murine myoblast cells treated with purified recombinant hNAMPTcif variants, as well as full length NAMPT. Cells were treated with 10 nM of recombinant protein for 48 hours in DMEM supplemented with 2% foetal bovine serum at 37° C., 5% CO2. PBS treatment was used as a negative control. 10% foetal bovine serum was used as positive control. Quantification of proliferation was performed using commercially-available CyQuant Proliferation Assay kit (Thermo Fisher Scientific) according to manufacturer's instructions and read using a Synergy H1 plate reader (BioTek). Data were presented as percentage increase versus.
The heparin-binding sequence of placenta growth factor 2 (PIGF2) was fused to the N-terminus of NAMPTcif and produced using a bacterial expression system. PIGF-NAMPTcif was purified by FPLC using His-tag affinity purification followed by size exclusion chromatography. Cell proliferation assays were performed using C2C12 murine myoblast cells treated with purified recombinant NAMPTcif and full length NAMPT. Cells were treated with 2 nM, 10 nM and 20 nM concentrations of recombinant protein for 48 hours in DMEM supplemented with 2% foetal bovine serum at 37° C., 5% CO2. PBS treatment was used as a negative control. 10% foetal bovine serum was used as positive control. Quantification of proliferation was performed using commercially-available CyQuant Proliferation Assay kit (Thermo Fisher Scientific) according to manufacturer's instructions and read using a Synergy H1 plate reader (BioTek). Data were presented as percentage increase versus negative control. A two-tailed unpaired t-test was used to determine statistical significance.

[2] = tested on: Human primary satellite cells; experiment: Human primary satellite cell proliferation, CyQuant; type: cell-based; details: 20 nM; 48 hours; media with IGF-1 and FGF-2
Procedure: (§1) FIG. 8. Human NAMPT variants stimulate human satellite cell proliferation. Human primary satellite cells were treated with 20 nM full length NAMPT (NAMPT) or NAMPT variants (NAMPTxxx-xxx, where xxx are amino acid numbers) for 48 hours. The media contained the growth factors IGF-1 and FGF-2 as well. Quantification of cell proliferation was performed using CyQuant Proliferation Assay kit. […] Treatment with 20% FBS was used as a positive control. Box and whiskers denote median with minimum and maximum values. n=6-10 independent experiments per protein. Statistical significance is indicated as p-value and determined by one-sample t-test.
The inventors next sought to compare the activity of full length NAMPT, NAMPT402-491 and NAMPT422-491 on human satellite cell proliferation. Human primary satellite cells were treated with 20 nM full length NAMPT (NAMPT) or NAMPT402-491 and NAMPT422-491 for 48 hours.

[3] = tested on: Human primary endothelial cells derived from umbilical vein; experiment: Human primary endothelial cell proliferation, CyQuant; type: cell-based; details: 20 nM; 48 hours
Procedure: as §1, with “9.” for “8.”, “endothelial” for “satellite”, “cells derived from umbilical vein” for “cells”, “hours.” for “hours. The media contained the growth factors IGF-1 and FGF-2 as well.”, “10%” for “20%”, “n=6” for “n=6-10”
Similarly, the inventors next investigated the activity of full length NAMPT, NAMPT402-491 and NAMPT422-491 on human endothelial cell proliferation. Human endothelial cells were derived from umbilical vein and treated with 20 nM full length NAMPT (NAMPT) or NAMPT variants for 48 hours.

[4] = tested on: needle-stab muscle injury in zebrafish larvae; experiment: Larval zebrafish muscle injury and EdU pulse-chase; type: in vivo; details: 57 nM in Ringer's solution immediately after injury at 4 dpf; EdU at 2 dpi
Procedure: Zebrafish larvae (4 dpf) were anaesthetized in 0.01% tricaine (MS-222) (Sigma-Aldrich) in Ringer's solution. Needle-stab injury was carried out in the dorsal myotome, consisting in a single 30-gauge needle puncture that generates an extensive injury with many damaged muscle fibres. Nampt fragment treatments were carried out by incubating 4 dpf needle-stab-injured larvae in 57 nM Nampt in Ringer's solution immediately after injury. Needle-stab-injured larvae at 6 dpf (2 dpi) were transferred into Ringer's solution containing 50 μg ml-1 EdU (Thermo Fisher Scientific) for 1 h and chased for a further 1.5 h before fixation. Samples were developed using the Click-iT EdU Alexa Fluor 647 imaging Kit (Thermo Fisher Scientific) following the manufacturer's protocol, followed by a phalloidin immunostaining (Thermo Fisher Scientific). EdU+ cells in a region encompassing two myotomes on either side of the injury were quantified as the number of EdU+ cells outside the injury region. EdU+ cells in the caudal haematopoietic tissue were excluded from this analysis. Statistical analysis has been conducted using Two-way ANOVA with Tuckey's multiple comparison test.

C2C12 myoblasts = experiment: C2C12 myoblast proliferation by EdU incorporation; type: cell-based, mouse; details: exogenously added factor vs control
Procedure: FIG. 2. […] In vitro assay assessing the effects of exogenously introduced factors on C2C12 myoblast proliferation. Proliferation is identified by EdU incorporation. […] Mean+S.D. Two-way ANOVA with Tukey's multiple comparison test. […] Mean±SEM
The mouse muscle cell line C2C12 (Yaffe, D. & Saxel, O. Serial passaging and differentiation of myogenic cells isolated from dystrophic mouse muscle. Nature 270, 725 (1977) were cultured in growth media (Dulbecco's Modified Eagle Medium (4.5 g/l D-Glucose, No L Glutamine, No Sodium Pyruvate (Gibco))+20% Fetal Bovine Solution-One Shot (Gibco)+1% Glut Max 100×(Gibco)). Cells were maintained at 37° C., 5% CO2. Cells at 70% confluence, passage 8 were extracted from T75 flasks with 0.025% Tryspin EDTA (Gibco), neutralised in growth media, spun at 180×g for 5 min to pellet cells. The cells were then resuspended in 10 ml of fresh growth media. 500 μl of cells were plated on a 8-well on cover glass II (Sarstedt) chamber slide at a density of 1×10^3 cells/ml. Cells were left 4 h at 37° C. to re-attach. For drug treatments, the media were supplemented with appropriate doses and cultured for 6 h.

| Molecule | cell proliferation, percentage increase vs PBS-treated control [1] | myoblast proliferation (EdU incorporation), factor alone (C2C12 myoblasts) | further results |
| --- | --- | --- | --- |
| B1 | highest cellular proliferation compared to all NAMPT variants tested; also recorded: statistically significant increase in proliferation | – | satellite cell proliferation, percentage increase vs PBS-treated control [2]: even greater satellite cell proliferation compared to both full length NAMPT and NAMPT402-491; endothelial cell proliferation, percentage increase vs PBS-treated control [3]: still stimulated endothelial cell proliferation above negative control; cell proliferation (EdU-positive cells) within the injury zone [4]: significant increase in cell proliferation within the injury zone; also recorded: significantly higher levels as compared to human recombinant-NAMPT (hrNAMPT) |
| B2 | – | could be recapitulated | myoblast proliferation (EdU incorporation), factor alone (C2C12 myoblasts; listed as mrCCL4): functioned to enhance C2C12 proliferation |
| B3 | – | dose dependent increase in myoblast proliferation; also recorded: comparable and significant dose dependent increases in myoblast proliferation | – |
| B4 | – | dose dependent increase in myoblast proliferation; also recorded: comparable and significant dose dependent increases in myoblast proliferation | – |
| B5 | enhanced cellular proliferation compared to full-length NAMPT | – | – |
| B6 | – | could be recapitulated | myoblast proliferation (EdU incorporation), factor alone (C2C12 myoblasts; listed as mrCCL8): functioned to enhance C2C12 proliferation |
| B7 | enhanced cellular proliferation compared to full-length NAMPT | – | – |
